Laboratory results reported in doi:10.1101/2025.01.03.631197.

Molecular target: EPHA2 (human (endogenous in HSC-4)) (UniProt P29317)
Assay: proximity ligation

Sequence of UniProt P29317 (P29317 24-976): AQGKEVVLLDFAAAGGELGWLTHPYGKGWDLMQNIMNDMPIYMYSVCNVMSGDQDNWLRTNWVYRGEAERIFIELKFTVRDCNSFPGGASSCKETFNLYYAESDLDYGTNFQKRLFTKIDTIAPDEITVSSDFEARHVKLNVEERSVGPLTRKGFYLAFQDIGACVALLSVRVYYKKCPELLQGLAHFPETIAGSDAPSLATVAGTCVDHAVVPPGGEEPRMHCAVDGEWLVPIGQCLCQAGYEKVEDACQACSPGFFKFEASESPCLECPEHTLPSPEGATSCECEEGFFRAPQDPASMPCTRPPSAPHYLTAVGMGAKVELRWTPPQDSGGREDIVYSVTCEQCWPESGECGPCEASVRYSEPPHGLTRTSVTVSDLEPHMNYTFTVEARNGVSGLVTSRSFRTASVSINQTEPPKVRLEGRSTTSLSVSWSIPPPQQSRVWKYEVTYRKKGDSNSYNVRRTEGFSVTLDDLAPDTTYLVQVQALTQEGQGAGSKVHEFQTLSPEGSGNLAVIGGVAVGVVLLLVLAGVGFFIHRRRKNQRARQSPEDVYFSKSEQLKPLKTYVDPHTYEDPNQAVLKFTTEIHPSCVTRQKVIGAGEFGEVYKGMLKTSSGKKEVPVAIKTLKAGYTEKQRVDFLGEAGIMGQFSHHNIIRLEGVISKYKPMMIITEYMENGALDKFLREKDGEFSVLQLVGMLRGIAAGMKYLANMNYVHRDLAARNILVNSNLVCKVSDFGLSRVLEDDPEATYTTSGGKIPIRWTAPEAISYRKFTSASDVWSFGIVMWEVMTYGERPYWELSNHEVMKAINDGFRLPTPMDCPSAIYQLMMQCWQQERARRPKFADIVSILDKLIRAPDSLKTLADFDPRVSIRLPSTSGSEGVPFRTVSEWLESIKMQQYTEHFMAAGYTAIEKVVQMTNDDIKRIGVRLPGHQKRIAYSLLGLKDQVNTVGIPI

Substance: Ephrin-B1 phosphorylated at Y324/329 (ligand)
- PLA foci per cell (foci per cell): 2
